Measurements published in the Human Domainome abundance scans (Beltran et al. 2025).

B1: SAM and SH3 domain-containing protein 1, residues 630 to 700; numbered along this chain, O94885 (parent)
chain: GRPPQPKSVEDLLDRINLKEHMPTFLFNGYEDLDTFKLLEEEDLDELNIRDPEHRAVLLTAVELLQEYDSN

Variants of: B1
Experiment: abundance fitness (aPCA) (normalised: wild type 0, dead -1); higher = more abundant; growth selection in yeast, the domain comes from the species named
Settings: Homo sapiens

Abundance fitness, by site and new letter:
D51: A -0.659; C -0.396; N -0.159; E -0.369; Y -0.774; S -0.49; R -0.611; M -0.845; W -0.862; G -0.75; V -0.553; H -0.447; Q -0.307; T -0.505; L -0.632
R50: K 0.032; T 0.183; W 0.003; D -0.057; H 0.072; G -0.371; E -0.146; L 0.091; A -0.301; F -0.071; I -0.11; S -0.06; Q 0.039; N -0.027; Y -0.012
P52: E -0.317; L -0.61; G -0.71; F -1.04; C -0.565; N -0.569
N48: P -0.837; H -0.056; F -0.983; Q -0.393; C -0.273; A -0.343; L -0.741; W -0.775; S -0.388; R -0.319; M -0.516; V -1.21; G 0.197; E 0.084; I -0.985; D 0.024; T -0.916
E42: T 0.035; S 0.102; F -0.743; G 0.013; V -0.302; C -0.222; H 0.055; I -0.477; W -0.618; Q -0.023; A 0.104; P -0.124; N -0.094; Y -0.539; K 0.283; L -0.6; M -0.476
D43: A -0.325; N -0.058; K -0.117; Y -0.953; E -0.503; P -0.939; H -0.201; M -0.594; T -0.19; R -0.385; L -0.894; C -0.713; V -0.456; S -0.359; I -0.584; W -0.928; F -1.05; Q -0.142; G -0.444
I49: P -1; T -0.863; Q -0.92; W -0.823; F -0.851; S -0.876; R -0.831; G -0.785; K -0.863; Y -0.869; A -0.98; H -0.784; C -0.728; E -0.79; L -0.868; N -0.926; V -0.398
L44: P -0.764; A -0.779; D -0.819; F -0.38; N -0.822; H -0.941; Q -0.873; R -0.904; G -0.819; V -0.791; S -0.875; Y -0.755; M -0.702; W -0.773; K -0.746; C -0.598; E -0.757
D45: Y -0.496; K -0.135; P -0.833; I 0.037; H -0.538; F -0.48; A -0.622; S -0.544; G -0.812; Q -0.557; M -0.247; C -0.416; R -0.415; W -0.499; V -0.151; N -0.272; T -0.38; E -0.276; L -0.113
E41: R -0.499; I -0.588; K -0.302; N -0.408; M -0.578; L -0.635; W -0.567; V -0.495; H -0.7; S -0.34
L47: R -0.922; H -0.788; C -0.577; M 0.017; V -0.781; Y -0.783; P -0.799; Q -0.805; F -0.828; D -0.828; K -0.781; W -0.959; I -0.671; E -0.765; A -0.698
